Reference: patent US8153410B2, “Alternate morpheein forms of allosteric proteins as a target for the development of bioactive molecules” (Fox Chase Cancer Center, priority 2003, dated 2012)
Read-outs that look alike come from different tables or passages of the source. Marks after values point to notes of the source that are not given here.

Columns and labels:
pea PBGS = molecular target: T1, pea PBGS (Pisum sativum, UniProt P30124); settings: read-out: Kd for the allosteric magnesium of pea PBGS; cited from earlier work
T1 sequence (P30124 69-398 limits assumed): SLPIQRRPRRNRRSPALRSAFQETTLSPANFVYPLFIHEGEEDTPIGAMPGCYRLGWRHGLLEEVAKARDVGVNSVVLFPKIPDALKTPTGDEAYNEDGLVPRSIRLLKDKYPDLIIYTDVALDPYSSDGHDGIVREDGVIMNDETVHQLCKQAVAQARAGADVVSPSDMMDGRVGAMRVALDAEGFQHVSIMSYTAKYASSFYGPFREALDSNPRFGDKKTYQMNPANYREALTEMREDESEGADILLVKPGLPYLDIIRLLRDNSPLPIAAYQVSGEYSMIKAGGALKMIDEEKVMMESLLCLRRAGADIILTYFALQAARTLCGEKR

human PBGS [1] = molecular target: T2, human PBGS (Homo sapiens, UniProt P13716, C162A/K59N); assay: kinetic characterization (Km, Vmax, specific activity) of human PBGS variants with substrate ALA; format: biochemical; settings: pH 9; Table 1; hexamer component
T2 construct: made in house; host or cells: E. coli BLR(DE3)
T2 sequence (P13716 1-330 K59N/C162A): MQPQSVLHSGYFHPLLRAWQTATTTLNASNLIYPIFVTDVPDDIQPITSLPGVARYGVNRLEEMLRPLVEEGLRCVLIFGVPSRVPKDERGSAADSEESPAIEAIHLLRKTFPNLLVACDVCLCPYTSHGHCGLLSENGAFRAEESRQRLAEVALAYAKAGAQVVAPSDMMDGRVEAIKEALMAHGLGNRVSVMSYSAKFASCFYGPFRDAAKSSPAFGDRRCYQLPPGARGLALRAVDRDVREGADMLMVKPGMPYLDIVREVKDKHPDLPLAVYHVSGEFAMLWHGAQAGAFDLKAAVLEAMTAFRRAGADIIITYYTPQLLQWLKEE
Procedure: (§1) All kinetic determinations were carried out in 0.1 M bis-tris propane, 10 mM 2-mercaptoethanol, 10 μM Zn. For the pH rate profiles, the reported pH reflects the assay pH after the addition of 10 mM ALA-HCl. For Km and Vmax determinations, concentrations of ALA were 10 μM, 30 μM, 100 μM, 300 μM, 1 mM, 3 mM, and 10 mM and were each done in duplicate. […] All assays were at 37° C. for a fixed time using Ehrlich's reagent to determine porphobilinogen formed.
(§2) The kinetic parameters Km and Vmax of the S300 purified pools were determined at pH 7 and at pH 9 (Table 3 contains data for hetero-hexamers (Pool I) initially at 70% Leu and 30% Phe and for hetero-octamers (Pool II) initially at 30% Leu and 70% Phe). […] With the exception of the trace amount of octamer present for Pool I that is detected at pH 9, all the kinetic values are well determined (see Table 3). […] The factors that govern equilibration of human PBGS heteromers under assay conditions remain to be elucidated.
(§3) Km1 and Km2 (both mM) are interpreted as the Km for the octamer and hexamer, respectively.
(§4) Using freshly prepared hetero-oligomers of WT+F12L, the Pool I and Pool II proteins were separated chromatographically and then dialyzed for 24 hours at pH 7 in the presence of 10 mM ALA. Following dialysis, the re-equilibrated hetero-oligomers were again separated into their hexameric and octameric components by chromatography on a Mono-Q column. The separated proteins were characterized for their specific activity and for their Phe12 and Leu12 content. The specific activity of hexamer and octamer are dramatically different with hexamer showing optimal activity at pH 9 and the activity of octamer is maximal at pH 7 (Table 4). […] Following chromatographic separation, the proteins were called Pool I hexamer, Pool I octamer, Pool II hexamer, and Pool II octamer and are described below. The peak to elute first on the Mono-Q column runs comparably to the F12L mutant, which is the hexamer. The hexameric structure is substantiated by native gel electrophoresis and by specific activity at pH 7 and pH 9 (FIG. 26A and Table 4). The second peak to elute runs comparably to the WT human PBGS, which is the octamer. The octameric structure is substantiated by native gel electrophoresis and specific activity at pH 7 and pH 9 (FIG. 26A and Table 4). Consistent with the documented characteristics of human PBGS hexamers and octamers, Pool I hexamer and Pool II hexamer have very low activity at pH 7 and considerable activity at pH 9. Pool I octamer and Pool II octamer both show substantially higher activity at pH 7 than at pH 9.

human PBGS [2] = assay: as above; format: biochemical
Procedure: as §1, §2, §3, §4

human PBGS [3] = assay: temperature dependence (Arrhenius plots) of hetero-hexamer to hetero-octamer conversion and of substrate turnover; format: biochemical; settings: pH 7.0, 10 mM ALA-HCl
From the text: To determine the free energy of activation for the conversion of hetero-hexamers to hetero-octamers, we took advantage of the dramatic differences in the activity of octameric (high activity) and hexameric (low activity) human PBGS at pH 7.0 (3, 5). Because of this difference, the transition from purified hetero-hexamers to a mixture of hetero-hexamers and hetero-octamers under turnover conditions is accompanied by a progressive increase in the specific activity; this process was monitored at several temperatures. Starting with purified hetero-hexamers, (FIG. 34a) the specific activity increased, which is fit to a first-order exponential as exemplified in FIG. 35b (5). […] The time-courses for conversion of hetero-hexamer to hetero-octamer were monitored by periodically removing aliquots from the incubations and immediately quantifying porphobilinogen using Ehrlich's reagent and calculating specific activities based on the total incubation time. […] An activation energy for hetero-hexamer to hetero-octamer conversion (Ea=63±5 kJ/mol) was determined from the slope of the plot. […] However, we previously monitored this process at 5 μg/ml and 0.9 mg/ml, two widely different enzyme concentrations, by specific activity increase and dynamic light scattering respectively. […]

With `[Mg+2]` [magnesium] as the molecule, how does the Kd (pea PBGS) read?
The Kd was 2500 µM.

B1: WT: wild type human PBGS (parent N59/C162A), octameric, expressed in E. coli (protein)
chain: T2 sequence (P13716 1-330 K59N/C162A)
With B1 as the molecule, how does the Km2 (human PBGS [1]) read?
The Km2 was 4.46 ± 0.80^a mM.

And the Vmax2 (human PBGS [1])?
The Vmax2 was 6.67 µM/h/mg.

What about the “Specific activities before and after substrate induced disproportionation” value (human PBGS [2]; pH 7) of the same molecule?
The value was 56.9 µmol/h/mg.

What about the Km1 (human PBGS [2]; pH 7, Table 1) of the same molecule?
The Km1 was 0.25 ± 0.01 mM.

And the Vmax1 (human PBGS [2]; pH 7, Table 1)?
Its Vmax1 is 55.5 ± 0.2.

What about the Vmax1 (human PBGS [2]; pH 7, Table 3) of the same molecule?
The Vmax1 was 55.5 ± 0.2 µmol/h/mg.

What about the Km (human PBGS [2]; pH 7, Table 3, read-out: Km1 (Km for the octamer)) of the same molecule?
The Km was 250 ± 10 µM.

And the “Specific activities before and after substrate induced disproportionation” value (human PBGS [2]; pH 9)?
Its value is 13.1 µmol/h/mg.

What about the Km1 (human PBGS [2]; pH 9, Table 1) of the same molecule?
The Km1 was 0.015 ± 0.001 mM.

What about the Vmax1 (human PBGS [2]; pH 9, Table 1) of the same molecule?
The Vmax1 was 8.16 ± 0.13.

What about the Vmax1 (human PBGS [2]; pH 9, Table 3) of the same molecule?
Its Vmax1 is 8.16 ± 0.13 µmol/h/mg.

And the Vmax2 (human PBGS [2]; pH 9, Table 3)?
The Vmax2 was 6.67 ± 0.36 µmol/h/mg.

And the Km (human PBGS [2]; pH 9, Table 3, read-out: Km1 (Km for the octamer))?
Its Km is 15 µM.

What about the Km (human PBGS [2]; pH 9, Table 3, read-out: Km2 (Km for the hexamer)) of the same molecule?
Its Km is 4460 ± 800 µM.

What about the “activation energy for substrate turnover” value (human PBGS [3]) of the same molecule?
Its value is 14.8 ± 0.24 kcal/mol.
